According to PMC7948500, “Comparative interactomes of HSF1 in stress and disease reveal a role for CTCF in HSF1-mediated gene regulation” (The Journal of Biological Chemistry, 2020):

Molecular target: T1, His6-tagged CTCF (human, UniProt P49711 1-727)
T1 construct: CTCF, human, codon-optimized for bacterial expression, in pET-15b; printed both as CTCF-His and His-CTCF; pET-15b usually adds an N-terminal His tag; also called His-CTCF; CTCF-His; source: E. coli BL21 (DE3), purified (Ni-NTA agarose)
T1 sequence (looked up): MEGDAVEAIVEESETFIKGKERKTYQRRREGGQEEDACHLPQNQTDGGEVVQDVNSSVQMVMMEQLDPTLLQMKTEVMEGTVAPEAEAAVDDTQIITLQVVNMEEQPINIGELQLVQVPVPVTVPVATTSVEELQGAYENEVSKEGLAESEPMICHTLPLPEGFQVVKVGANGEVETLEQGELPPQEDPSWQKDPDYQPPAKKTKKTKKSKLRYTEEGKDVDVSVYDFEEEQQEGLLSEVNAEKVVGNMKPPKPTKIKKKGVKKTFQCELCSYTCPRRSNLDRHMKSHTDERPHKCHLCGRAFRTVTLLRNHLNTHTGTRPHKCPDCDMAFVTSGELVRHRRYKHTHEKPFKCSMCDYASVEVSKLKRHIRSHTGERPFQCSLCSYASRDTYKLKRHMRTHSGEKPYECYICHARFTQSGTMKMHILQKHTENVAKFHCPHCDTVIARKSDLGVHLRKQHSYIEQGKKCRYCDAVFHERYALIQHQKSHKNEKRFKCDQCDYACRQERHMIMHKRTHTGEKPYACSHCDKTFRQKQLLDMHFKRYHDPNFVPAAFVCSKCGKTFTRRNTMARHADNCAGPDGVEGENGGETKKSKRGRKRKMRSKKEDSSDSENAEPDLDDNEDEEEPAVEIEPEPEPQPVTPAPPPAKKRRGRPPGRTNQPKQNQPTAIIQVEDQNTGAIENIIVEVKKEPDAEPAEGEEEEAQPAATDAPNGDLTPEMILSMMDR
Assay: pull-down; in vitro STREP pull-down: 5 nM purified His-CTCF alone or with STREP-HSF1 in 1 ml Buffer NP (50 mM NaH2PO4, 300 mM NaCl, pH 8.0), 1 h at 4 °C, MagStrep type 3 XT resin, five washes, eluted with 25 mM desthiobiotin; immunoblot
Settings: both partners purified

binding result: binds
B1: STREP-HSF1 (natural protein, human, UniProt Q00613 1-529, looked up)
chain: MDLPVGPGAAGPSNVPAFLTKLWTLVSDPDTDALICWSPSGNSFHVFDQGQFAKEVLPKYFKHNNMASFVRQLNMYGFRKVVHIEQGGLVKPERDDTEFQHPCFLRGQEQLLENIKRKVTSVSTLKSEDIKIRQDSVTKLLTDVQLMKGKQECMDSKLLAMKHENEALWREVASLRQKHAQQQKVVNKLIQFLISLVQSNRILGVKRKIPLMLNDSGSAHSMPKYSRQFSLEHVHGSGPYSAPSPAYSSSSLYAPDAVASSGPIISDITELAPASPMASPGGSIDERPLSSSPLVRVKEEPPSPPQSPRVEEASPGRPSSVDTLLSPTALIDSILRESEPAPASVTALTDARGHTDTEGRPPSPPPTSTPEKCLSVACLDKNELSDHLDAMDSNLDNLQTMLSSHGFSVDTSALLDLFSPSVTVPDMSLPDLDSSLASIQELLSPQEPPRPPEAENSSPDSGKQLVHYTAQPLFLLDPGSVDTGSNDLPVLFELGEGSYFSEGDGFAEDPTISLLTGSEPPKAKDPTVS
notes: HSF1, human, codon-optimized for bacterial expression; also called STREP-tagged HSF1; source: E. coli BL21 (DE3), purified (StrepTrap column)
